One may read the Kd as the concentration at which binding is half-saturated.

Where a chain is given by its changes, count along the chain named.

The target in the assay is 重组NT抗原(自产，130410) (human) (UniProt P16860). Put plainly: BLI, antibody captured on AMC sensor, antigen in solution.
Sequence of UniProt P16860 (P16860 27-102): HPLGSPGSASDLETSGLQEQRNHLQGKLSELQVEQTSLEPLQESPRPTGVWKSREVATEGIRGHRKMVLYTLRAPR

B1: WT 1-5 (antibody, from another filing)
heavy: QVRLQESGPSQVKPAQTLSLTCAISGPSLTTYYLDWVRHTPGKPPEWLAQMTKDANAVHNPTVRSRLSITRDTSKSQVFLKLTGVTTEDTAVYYCVKGLIDFGPGLLVTVSSASTTPPKVYPLTSCCGDTSSSIVTLGCLVSSYMPEPVTVTWNSGALTSGVHTFPAILQSSGLYSLSSVVTVPASTSGAQTFICNVAHPASSTKVDKRVEPGCPDPCKHCRCPPPELPGGPSVFIFPPKPKDTLTISGTPEVTCVVVDVGQDDPEVQFSWFVDNVEVRTARTKPREEQFNSTFRVVSALPIQHQDWTGGKEFKCKVHNEGLPAPIVRTISRTKGQAREPQVYVLAPPQEELSKSTLSVTCLVTGFYPDYIAVEWQKNGQPESEDKYGTTTSQLDADGSYFLYSRLRVDKNSWQEGDTYACVVMHEALHNHYTQKSISKPPGK
light: QAVLTQPSSVSRSLGQTVSITCSGSSDQVGPGDYLNWFQLIPGSAPKTLIFAASSRIRGVPDRFSGSRSGNTATLTINSLQAEDEADYYCGSANSRNYVWGSGTRLTVLSQPKSAPSVTLFPPSKEELDTNKATVVCLISDFYPGSVNVVWKADGSTINQNVKTTQASKQSNSKYAASSYLTLTGSEWKSKSSYTCEVTHEGSTVTKTVKPSECS
In turn, B1 displayed a Kd of 5.31 nM.

B2: WT 1-4 (antibody, from another filing)
heavy: B1 heavy with L29V, L34V, N60Q, V63L, L99V
light: QAVLTQPSSVSRSLGQTVSITCSGSSDQVGPGDYVNWFQLIPGSAPKTLIFAATSRIRGVPDRFSGSRSGNTATLTINSLQAEDEADYYCGSGNSRGGYVWGSGTRLTVLSQPKSAPSVTLFPPSKEELDTNKATVVCLISDFYPGSVNVVWKADGSTINQNVKTTQASKQSNSKYAASSYLTLTGSEWKSKSSYTCEVTHEGSTVTKTVKPSECS
Turning to B2, the Kd is 9.63 nM.

B3: WT 1-6 (antibody, from another filing, V domains shown)
VH: QVRLQESGPSQVKPAQTLSLTCAISGPSITTYYVDWVRHTPGKPPEWLAQMTKDANAVHQPTIRSRLSITRDTSKSQVFLKLTGVTTEDTAVYYCVKGLIDWGPGLLVTVSS
V domain: QAVLTQPSSVSRSLGQTVSITCSGSSDQVGPGDYLNWFQLIPGSAPKTLIFAASSRLRGVPDRFSGSRSGNTATLTINSLQAEDEADYYCGSANSRGGYVWGSGTRLTVLS
For B3, the equilibrium dissociation constant (Kd) stood at 5.25 nM.

B4: WT 1-7 (antibody, from another filing, V domains shown)
VH: B3 VH with I29V, V34L, I63V, L99V
V domain: B3 V domain with Q28N, L35I, S54Y, A93G
B4 displayed a Kd of 6.76 nM.

B5: WT 1-8 (antibody, from another filing, V domains shown)
VH: B3 VH with I29L, I63V, L99I
V domain: QAVLTQPSSVSRSLGQTVSITCSGSSDNVGPGDYINWFQLIPGSAPKTLIFAAYSRVRGVPDRFSGSRSGNTATLTINSLQAEDEADYYCGSPNSRNYVWGSGTRLTVLS
B5 had a Kd of 8.36 nM.

B6: WT 1-9 (antibody, from another filing, V domains shown)
VH: B3 VH with I29V, V34I, I63L
V domain: B3 V domain with Q28N, L35V, S54Y, A93G
B6 gave a dissociation constant Kd of 7.55 nM.

B7: WT 1-1 (antibody, from another filing, V domains shown)
VH: B3 VH with I29V, V34I, Q60N, L99V
V domain: B5 V domain with V57I, P93A
With B7, the Kd was 6.25 nM.

B8: WT 1-2 (antibody, from another filing, V domains shown)
VH: B3 VH with I29L, V34I, I63L, L99V
V domain: B5 V domain with I35L, Y54S, V57I
In the case of B8, the dissociation constant Kd was found to be 6.74 nM.

(Values after patent CN112707964A.)
